Article PMC12063518, “IAT4, a New Indolamine N‐Acetyltransferase in Saccharomyces cerevisiae Involved in Melatonin Biosynthesis” (Journal of Pineal Research, 2025)

Experiments:
Experiment in all cases: purified protein
purified protein [1] = substrate: NCCc1c[nH]c2ccccc12; assay type: biochemical, Saccharomyces cerevisiae; details: 0.2 mM acetyl-CoA, pH 8.8, 37 °C, 15 min
purified protein [2] = substrate: COc1ccc2[nH]cc(CCN)c2c1; assay type: biochemical, Saccharomyces cerevisiae; details: 0.2 mM acetyl-CoA, pH 8.8, 37 °C, 15 min
purified protein [3] = substrate: NCCc1c[nH]c2ccc(O)cc12; assay type: biochemical, Saccharomyces cerevisiae; details: 0.2 mM acetyl-CoA, pH 8.8, 37 °C
purified protein [4] = substrate: NCCc1c[nH]c2ccc(O)cc12; details: 0.2 mM acetyl-CoA, pH 8.8, 37 °C, 15 min enzymatic assay as Iat4, fit R2 = 0.825

B1: Iat4 (Saccharomyces cerevisiae S288C) (protein)
chain: MSFENKLPTPLENNDAKGHMVCTLNKTTDARRAAETLSIAFSNSPAFHFICKKILNIPLAEKVPTRTITTDIISPFLDSPYGEISEVNTFDAVAVWSLPPHVPKARSNDAKFNKDFIDDLNARVKQVIPNGINYYYLFCIGKNLNEKGIRGSVRTIFEEYKRRADEENCAIVLEAIAEHAKSVYEYFGFRNYMTFKYGECEVDSNGNCDPNGEGFTAYLMIYHKDGNKVLKE
notes: GST fusion from pGEX-5X-1, E. coli Rosetta (DE3), glutathione Sepharose; native protein 232 aa
Km (purified protein [1]): 356 µM
Km (purified protein [2]): 353 µM
Km (purified protein [3]; 15 min): 0.93 mM

B2: Hpa2 (Saccharomyces cerevisiae S288C) (protein)
chain: MSNTSEDNITVRFVTENDKEGWQRLWKSYQDFYEVSFPDDLDDFNFGRFLDPNIKMWAAVAVESSSEKIIGMINFFNHMTTWDFKDKIYINDLYVDENSRVKGAGGKLIQFVYDEADKLGTPSVYWCTDESNHRAQLLYVKVGYKAPKILYKRKGY
notes: same enzymatic assay as Iat4
Km (purified protein [3]; 15 min enzymatic assay as Iat4, unit not given, mM from the preceding sentence): 6.82 ± 1.62 mM

B3: Paa1 (Saccharomyces cerevisiae S288C) (protein)
chain: MASSSSTLPLHMYIRPLIIEDLKQILNLESQGFPPNERASEEIISFRLINCPELCSGLFIREIEGKEVKKETLIGHIMGTKIPHEYITIESMGKLQVESSNHIGIHSVVIKPEYQKKNLATLLLTDYIQKLSNQEIGNKIVLIAHEPLIPFYERVGFKIIAENTNVAKDKNFAEQKWIDMERELIKEEYDN
Km (purified protein [4]): 4250 ± 1460 µM
